Results as given in doi:10.1101/433045 (bioRxiv, 2020).
Changes are numbered by the printed parent chain. No end group written: not given here. FAM = 5,6-carboxyfluorescein

T1: Nrd1 CID (S. cerevisiae, UniProt P53617 1-153)
T1 sequence: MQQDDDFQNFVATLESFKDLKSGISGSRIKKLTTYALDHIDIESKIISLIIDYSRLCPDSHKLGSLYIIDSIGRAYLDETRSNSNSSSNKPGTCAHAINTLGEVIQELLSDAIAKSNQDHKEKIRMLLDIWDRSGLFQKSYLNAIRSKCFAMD

T2: Nrd1 CID L20D (S. cerevisiae, UniProt P53617 1-153, L20D)
T2 sequence: T1 sequence with L20D

T3: Nrd1 CID K21D (S. cerevisiae, UniProt P53617 1-153, K21D)
T3 sequence: T1 sequence with K21D

T4: Nrd1 CID S25D (S. cerevisiae, UniProt P53617 1-153, S25D)
T4 sequence: T1 sequence with S25D

T5: Nrd1 CID R28D (S. cerevisiae, UniProt P53617 1-153, R28D)
T5 sequence: T1 sequence with R28D

B1: Nrd1 CID (domain or fragment)
chain: T1 sequence
B2: Sen1 NIM peptide (peptide)
peptide: {FAM}-DDDEDDYTPSIS

Experiments:
Test in all cases: fluorescence polarisation
[1] = target: Trf4 NIM peptide (S. cerevisiae)
Nrd1 CID = target: T1, Nrd1 CID
Nrd1 CID L20D = target: T2, Nrd1 CID L20D
Nrd1 CID K21D = target: T3, Nrd1 CID K21D
Nrd1 CID S25D = target: T4, Nrd1 CID S25D
Nrd1 CID R28D = target: T5, Nrd1 CID R28D

Binder | Kd [1] [nM] | Kd (Nrd1 CID) [nM] | binding result (Nrd1 CID L20D) | binding result (Nrd1 CID K21D) | binding result (Nrd1 CID S25D) | binding result (Nrd1 CID R28D)
B1 | 900 | – | – | – | – | –
B2 | – | 1200 ± 20 | binds | binds | binds | binds
